The source of these data is US20210024640A1.

Assay [1] deals with OX40 on HT1080 OX40 stable cell line (Homo sapiens (Human)) (UniProt P43489).
For assay [2] the target is unchanged. This is another data set of the same source.

Chain of OX40 on HT1080 OX40 stable cell line (Homo sapiens (Human)) (P43489 29-277): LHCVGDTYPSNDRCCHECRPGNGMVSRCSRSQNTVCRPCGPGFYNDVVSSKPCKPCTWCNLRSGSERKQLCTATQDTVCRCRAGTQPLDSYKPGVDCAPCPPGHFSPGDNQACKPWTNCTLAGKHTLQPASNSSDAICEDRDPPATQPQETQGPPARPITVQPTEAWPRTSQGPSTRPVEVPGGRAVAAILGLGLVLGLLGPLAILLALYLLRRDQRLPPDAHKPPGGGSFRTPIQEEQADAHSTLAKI

In assay [1], OX40L-Fc (Fc fusion) registered an EC50 (read off the curve), IL-8 secretion, antagonist assay control (ligand titration) of 300 pM. The same substance returned an EC50 (read off the curve), IL-8 secretion, agonist assay control in assay [2] of 300 pM.
